Laboratory results taken from patent US20140271675A1 (Eli Lilly, published 2014).

T1: human VEGFR3 (Human, UniProt P35916 25-776, limits assumed)
T1 construct: also called VEGFR3 Human
T1 sequence (looked up): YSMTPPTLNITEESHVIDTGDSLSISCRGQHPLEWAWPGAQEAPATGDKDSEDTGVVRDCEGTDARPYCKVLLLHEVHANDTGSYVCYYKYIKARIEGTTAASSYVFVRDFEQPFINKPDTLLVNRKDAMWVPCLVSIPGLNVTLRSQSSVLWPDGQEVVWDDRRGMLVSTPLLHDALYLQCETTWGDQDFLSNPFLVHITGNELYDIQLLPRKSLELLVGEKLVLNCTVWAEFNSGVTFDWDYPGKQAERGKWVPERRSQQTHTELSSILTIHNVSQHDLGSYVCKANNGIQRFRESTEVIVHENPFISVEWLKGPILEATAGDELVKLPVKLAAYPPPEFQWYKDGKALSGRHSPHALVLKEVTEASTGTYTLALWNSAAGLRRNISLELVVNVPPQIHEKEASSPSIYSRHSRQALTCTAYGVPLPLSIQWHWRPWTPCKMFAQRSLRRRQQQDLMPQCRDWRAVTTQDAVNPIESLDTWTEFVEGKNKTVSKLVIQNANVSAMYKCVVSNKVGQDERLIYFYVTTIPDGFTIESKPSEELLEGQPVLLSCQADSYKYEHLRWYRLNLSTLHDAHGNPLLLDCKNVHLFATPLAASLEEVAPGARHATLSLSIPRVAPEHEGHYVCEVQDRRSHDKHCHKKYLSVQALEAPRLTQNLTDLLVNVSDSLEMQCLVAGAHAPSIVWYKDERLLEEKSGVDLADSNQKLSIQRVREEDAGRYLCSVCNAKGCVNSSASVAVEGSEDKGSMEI

T2: mouse VEGFR3 (Mouse, UniProt P35917 25-775, limits assumed)
T2 construct: also called VEGFR3 Mouse
T2 sequence (looked up): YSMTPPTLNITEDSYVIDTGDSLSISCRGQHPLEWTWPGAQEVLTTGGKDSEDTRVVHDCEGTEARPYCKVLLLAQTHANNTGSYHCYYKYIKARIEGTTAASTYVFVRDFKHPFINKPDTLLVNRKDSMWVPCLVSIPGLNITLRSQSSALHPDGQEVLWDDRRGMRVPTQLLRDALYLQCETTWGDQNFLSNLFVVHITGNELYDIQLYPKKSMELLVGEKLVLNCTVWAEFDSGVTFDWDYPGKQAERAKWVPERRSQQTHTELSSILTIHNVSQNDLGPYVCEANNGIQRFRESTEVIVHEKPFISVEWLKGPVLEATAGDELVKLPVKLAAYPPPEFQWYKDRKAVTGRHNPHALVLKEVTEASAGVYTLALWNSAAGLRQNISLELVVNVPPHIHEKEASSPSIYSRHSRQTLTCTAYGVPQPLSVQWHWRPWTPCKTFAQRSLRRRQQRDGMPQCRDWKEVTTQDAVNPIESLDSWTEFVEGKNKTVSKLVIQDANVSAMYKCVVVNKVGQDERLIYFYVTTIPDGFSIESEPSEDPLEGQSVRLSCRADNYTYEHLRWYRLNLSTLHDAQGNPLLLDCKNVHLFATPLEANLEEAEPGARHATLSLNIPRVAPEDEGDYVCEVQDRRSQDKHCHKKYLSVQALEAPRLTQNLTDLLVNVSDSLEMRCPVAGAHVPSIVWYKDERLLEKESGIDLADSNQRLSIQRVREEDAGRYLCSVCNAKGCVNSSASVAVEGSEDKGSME

T3: mouse VEGFR1 (Mouse, UniProt P35969 23-759, limits assumed)
T3 construct: also called VEGFR1 Mouse
T3 sequence (looked up): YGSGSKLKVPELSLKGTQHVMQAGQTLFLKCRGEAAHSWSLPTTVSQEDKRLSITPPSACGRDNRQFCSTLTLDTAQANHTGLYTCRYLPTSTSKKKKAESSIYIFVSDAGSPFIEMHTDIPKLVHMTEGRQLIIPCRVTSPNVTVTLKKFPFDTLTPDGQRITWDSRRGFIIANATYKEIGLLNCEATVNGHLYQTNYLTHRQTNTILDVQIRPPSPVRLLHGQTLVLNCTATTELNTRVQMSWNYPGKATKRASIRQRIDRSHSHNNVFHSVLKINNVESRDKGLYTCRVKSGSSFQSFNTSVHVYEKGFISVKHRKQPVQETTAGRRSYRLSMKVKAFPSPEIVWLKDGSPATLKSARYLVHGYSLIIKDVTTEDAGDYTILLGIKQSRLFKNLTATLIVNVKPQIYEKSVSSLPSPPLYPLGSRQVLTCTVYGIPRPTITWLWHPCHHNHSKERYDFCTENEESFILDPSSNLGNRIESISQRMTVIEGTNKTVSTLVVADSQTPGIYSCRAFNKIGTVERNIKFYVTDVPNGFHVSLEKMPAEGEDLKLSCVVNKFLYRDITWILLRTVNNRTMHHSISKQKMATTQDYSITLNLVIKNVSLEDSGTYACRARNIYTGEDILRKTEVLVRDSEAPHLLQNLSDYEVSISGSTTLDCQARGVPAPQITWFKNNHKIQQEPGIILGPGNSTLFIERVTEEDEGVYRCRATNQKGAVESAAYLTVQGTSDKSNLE


How the values were obtained:
[1] = target: T1, human VEGFR3; assay: SPR (Biacore), 25 C
[2] = target: T2, mouse VEGFR3; assay: SPR (Biacore), 25 C
[3] = target: T4, human VEGFR1 (SPR analyte/ligand) (human, UniProt P17948 27-758, limits assumed); assay: SPR (Biacore), 25 C
T4 construct: also called VEGFR1 Human; Flt-1

[4] = target: T5, human VEGFR2 (Human, UniProt P35968 20-764, limits assumed); assay: SPR (Biacore), 25 C
T5 construct: also called VEGFR2 Human

[5] = target: T6, mouse VEGFR2 (Mouse, UniProt P35918 20-762, limits assumed); assay: SPR (Biacore), 25 C
T6 construct: also called VEGFR2 Mouse

[6] = target: T3, mouse VEGFR1; assay: SPR (Biacore), 25 C, n=4
[7] = target: T3, mouse VEGFR1; assay: SPR (Biacore), 25 C, n=1

T4 sequence (P17948 27-758 limits assumed): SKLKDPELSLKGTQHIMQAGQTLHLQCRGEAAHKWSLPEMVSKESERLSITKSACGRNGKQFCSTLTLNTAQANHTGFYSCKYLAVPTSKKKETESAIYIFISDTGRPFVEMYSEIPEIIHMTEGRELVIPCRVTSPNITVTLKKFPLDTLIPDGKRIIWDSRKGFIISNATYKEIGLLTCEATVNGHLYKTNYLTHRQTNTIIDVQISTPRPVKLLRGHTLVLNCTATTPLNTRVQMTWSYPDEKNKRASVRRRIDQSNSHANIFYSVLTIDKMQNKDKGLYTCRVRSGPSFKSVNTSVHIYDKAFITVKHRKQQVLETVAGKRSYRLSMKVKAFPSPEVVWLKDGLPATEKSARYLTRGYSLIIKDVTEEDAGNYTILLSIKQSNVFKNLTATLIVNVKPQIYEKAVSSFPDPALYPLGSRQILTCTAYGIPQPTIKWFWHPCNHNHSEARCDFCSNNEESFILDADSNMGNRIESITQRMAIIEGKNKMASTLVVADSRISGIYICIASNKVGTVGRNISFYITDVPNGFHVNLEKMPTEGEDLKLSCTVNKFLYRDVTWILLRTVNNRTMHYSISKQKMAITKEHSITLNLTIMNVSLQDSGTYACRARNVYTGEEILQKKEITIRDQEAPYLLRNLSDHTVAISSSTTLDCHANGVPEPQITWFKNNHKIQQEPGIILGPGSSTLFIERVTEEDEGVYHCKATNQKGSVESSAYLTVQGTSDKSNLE
T5 sequence (P35968 20-764 limits assumed): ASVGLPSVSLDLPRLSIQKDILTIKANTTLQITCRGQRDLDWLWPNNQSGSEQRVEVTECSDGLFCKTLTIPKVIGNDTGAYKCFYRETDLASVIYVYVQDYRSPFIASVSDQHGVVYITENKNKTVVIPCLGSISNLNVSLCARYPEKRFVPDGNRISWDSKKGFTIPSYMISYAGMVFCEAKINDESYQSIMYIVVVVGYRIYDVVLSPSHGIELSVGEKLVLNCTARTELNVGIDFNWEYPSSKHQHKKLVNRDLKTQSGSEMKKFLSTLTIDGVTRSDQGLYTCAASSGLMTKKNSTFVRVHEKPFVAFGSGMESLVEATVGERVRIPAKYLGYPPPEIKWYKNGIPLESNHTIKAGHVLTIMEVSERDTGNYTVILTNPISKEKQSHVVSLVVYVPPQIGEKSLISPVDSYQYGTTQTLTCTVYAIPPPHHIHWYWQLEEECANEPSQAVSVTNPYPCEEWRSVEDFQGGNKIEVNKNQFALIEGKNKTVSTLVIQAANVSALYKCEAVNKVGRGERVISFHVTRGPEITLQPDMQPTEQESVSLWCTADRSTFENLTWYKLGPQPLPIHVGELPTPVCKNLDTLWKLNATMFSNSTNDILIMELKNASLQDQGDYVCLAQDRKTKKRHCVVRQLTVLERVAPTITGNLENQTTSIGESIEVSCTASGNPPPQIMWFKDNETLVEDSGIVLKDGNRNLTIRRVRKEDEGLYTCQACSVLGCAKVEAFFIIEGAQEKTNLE
T6 sequence (P35918 20-762 limits assumed): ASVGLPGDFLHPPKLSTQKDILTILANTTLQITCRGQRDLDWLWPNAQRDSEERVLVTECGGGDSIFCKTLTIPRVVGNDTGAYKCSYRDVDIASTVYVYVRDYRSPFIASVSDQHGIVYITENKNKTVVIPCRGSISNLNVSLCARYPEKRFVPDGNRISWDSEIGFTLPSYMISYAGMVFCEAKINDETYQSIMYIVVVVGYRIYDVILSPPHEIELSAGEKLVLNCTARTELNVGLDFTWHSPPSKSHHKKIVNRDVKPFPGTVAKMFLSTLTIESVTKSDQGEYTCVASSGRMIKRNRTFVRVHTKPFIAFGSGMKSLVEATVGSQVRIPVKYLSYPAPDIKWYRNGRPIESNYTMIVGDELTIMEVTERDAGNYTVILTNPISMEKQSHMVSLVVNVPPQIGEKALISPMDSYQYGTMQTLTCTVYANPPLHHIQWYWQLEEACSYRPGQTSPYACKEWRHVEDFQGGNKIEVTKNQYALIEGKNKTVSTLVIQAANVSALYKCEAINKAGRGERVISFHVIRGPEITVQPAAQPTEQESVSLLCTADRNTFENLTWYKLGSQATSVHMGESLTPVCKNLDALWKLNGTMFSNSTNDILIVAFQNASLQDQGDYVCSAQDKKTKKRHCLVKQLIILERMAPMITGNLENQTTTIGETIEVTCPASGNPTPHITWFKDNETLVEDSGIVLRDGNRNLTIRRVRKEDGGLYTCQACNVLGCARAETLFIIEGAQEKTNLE

Binder	binding result [1]	binding result [2]	binding result [3]	binding result [4]	binding result [5]	Kd [6]	koff [6]	Kd [7]	koff [7]
Antibody IV (antibody, mouse IgG1, kappa, also called Ab IV; Antibody 4) heavy: QVQLKESGPGLVRPSETLSLTCTVSGFSLSDYSLSWVRRPSGKGPEWLGRLWFDGDTTYNSAFKSRLTISRDTSKDQVFLKMNSLQTDDTGTYYCTRDDRDFDYWGQGVMVTVSSAKTTPPSVYPLAPGSAAQTNSMVTLGCLVKGYFPEPVTVTWNSGSLSSGVHTFPAVLQSDLYTLSSSVTVPSSTWPSETVTCNVAHPASSTKVDKKIVPRDCGCKPCICTVPEVSSVFIFPPKPKDVLTITLTPKVTCVVVDISKDDPEVQFSWFVDDVEVHTAQTQPREEQFNSTFRSVSELPIMHQDWLNGKEFKCRVNSAAFPAPIEKTISKTKGRPKAPQVYTIPPPKEQMAKDKVSLTCMITDFFPEDITVEWQWNGQPAENYKNTQPIMDTDGSYFVYSKLNVQKSNWEAGNTFTCSVLHEGLHNHHTEKSLSHSPG light: DIVMTQTPVSMSVSLGGQVSISCRSSQSLVNNNGNTYLSWYIQKPSQSPQLLIYKVSNRVSGISDRFSGSGSGTDFTLKINKIEPDDLGVYYCGQNTQYPLTFGSGTKLEIKRADAAPTVSIFPPSSEQLTSGGASVVCFLNNFYPKDINVKWKIDGSERQNGVLNSWTDQDSKDSTYSMSSTLTLTKDEYERHNSYTCEATHKTSTSPIVKSFNRNEC	no binding (tested: ~200 nM)	no binding (tested: ~200 nM)	no binding (tested: ~200 nM)	no binding (tested: ~200 nM)	no binding (tested: ~200 nM)	≤ 0.018 nM	< 1e-05 s⁻¹		
Antibody III (antibody, also called Ab III; Antibody 3) heavy: QVQLKESGPGLVRPSETLSLTCTVSGFSLSDYSLSWVRRPSGKGPEWLGRLWFDGDTTYNSAFKSRLTISRDTSKDQVFLKMNSLQTDDTGTYYCTRDDRDFDYWGQGVMVTVSSAETTAPSVYPLAPGTALKSNSMVTLGCLVKGYFPEPVTVTWNSGALSSGVHTFPAVLQSGLYTLTSSVTVPSSTWPSQTVTCNVAHPASSTKVDKKIVPRNCGGDCKPCICTGSEVSSVFIFPPKPKDVLTITLTPKVTCVVVDISQDDPEVHFSWFVDDVEVHTAQTRPPEEQFNSTFRSVSELPILHQDWLNGRTFRCKVTSAAFPSPIEKTISKPEGRTQVPHVYTMSPTKEEMTQNEVSITCMVKGFYPPDIYVEWQMNGQPQENYKNTPPTMDTDGSYFLYSKLNVKKEKWQQGNTFTCSVLHEGLHNHHTEKSLSHSPGK light: DIVMTQTPVSMSVSLGGQVSISCRSSQSLVNNNGNTYLSWYIQKPSQSPQLLIYKVSNRVSGISDRFSGSGSGTDFTLKINKIEPDDLGVYYCGQNTQYPLTFGSGTKLEIKRADAAPTVSIFPPSTEQLATGGASVVCLMNNFYPRDISVKWKIDGTERRDGVLDSVTDQDSKDSTYSMSSTLSLTKADYESHNLYTCEVVHKTSSSPVVKSFNRNEC								0.032 nM	1.87e-05 s⁻¹
